Article PMC8233224, “Crystal structure of a homotrimeric verrucomicrobial exo-β-1,4-mannosidase active in the hindgut of the wood-feeding termite Reticulitermes flavipes” (Journal of Structural Biology: X, 2021)
“And” between values parts separate entries of the source, which are not always exact repeats. Identical values can stand only once.

Key:
[1] = molecular target: exo-β-1,4-mannosidase from Opitutaceae bacterium strain TAV5 (Op5Man5) (Opitutaceae bacterium strain TAV5); test: crystal structure; crystals from 0.1 M phosphorus citrate pH 4.2, 30% ethanol, 5% PEG 1000; space group P212121; 2.2 Å
[2] = molecular target: exo-β-1,4-mannosidase from Opitutaceae bacterium strain TAV5 (Op5Man5) (Opitutaceae bacterium strain TAV5); test: SEC; Superdex 200 10/300 GL, 20 mM buffer with 300 mM NaCl, pH 5.5-6.5 (sodium acetate pH 5.5; MES pH 6.0 and 6.5), 4 °C, standard curve of reference proteins
[3] = molecular target: exo-β-1,4-mannosidase from Opitutaceae bacterium strain TAV5 (Op5Man5) (Opitutaceae bacterium strain TAV5); test: cryo-EM structure; single particle cryo-EM at pH 7.5 of pooled SEC fractions with the trimeric species, 0.12 mg/ml; 3.7 Å map
[4] = molecular target: exo-β-1,4-mannosidase from Opitutaceae bacterium strain TAV5 (Op5Man5) (Opitutaceae bacterium strain TAV5); test: cross-linking; glutaraldehyde 0.4% w/v, protein 0.2 mg/ml, 37 °C, 0 to 60 min, SDS-PAGE (15%)
[5] = molecular target: exo-β-1,4-mannosidase from Opitutaceae bacterium strain TAV5 (Op5Man5) (Opitutaceae bacterium strain TAV5); test: SEC; Superdex 200 10/300 GL, 20 mM Tris-HCl pH 8.0 and 8.5 with 300 mM NaCl, 4 °C, standard curve of reference proteins
[6] = molecular target: exo-β-1,4-mannosidase from Opitutaceae bacterium strain TAV5 (Op5Man5) (Opitutaceae bacterium strain TAV5); test: SEC; Superdex 200 10/300 GL, 20 mM HEPES pH 7.5 with 300 mM NaCl, 4 °C, standard curve of reference proteins
[7] = tested on: T1, O=[N+]([O-])c1ccc(O[C@@H]2O[C@H](CO)[C@@H](O)[C@H](O)[C@@H]2O)cc1; test: purified protein; type: biochemical, Opitutaceae bacterium; settings: 50 mM sodium phosphate pH 6.0, 40 °C, 10 min, apparent
T1 construct: full length, 594 residues, no secretion signal; C-terminal non-cleavable His6 tag (pNIC-CH2), E. coli BL21(DE3) T1R; synthetic gene; ESI-MS 66824 g/mol; homotrimer ~200 kDa; N-terminus MTIDSSGY from primer

stoichiometry N [1]	stoichiometry N [2]	stoichiometry N [3]	stoichiometry N [4]	stoichiometry N [5]	stoichiometry N [6]	Substance	Km [7] [mM]	kcat [7] [s⁻¹]	kcat/Km [7] [M⁻¹ s⁻¹]
3	3	3	3 and 6	3	3 and 6	exo-β-1,4-mannosidase from Opitutaceae bacterium strain TAV5 (Op5Man5) (enzyme)			
						Op5Man5 (Opitutaceae bacterium)	1.0 ± 0.13	239 ± 7.7	239000 ± 7700
